Target: ribosomal protein S1 (Escherichia coli, UniProt P0AG67 1-557)
Test: EMSA; natural S1; preferred over SBS-Up; EMSA: 1 uM biotin-RNA, 1x EMSA/Gel-shift binding buffer (Beyotime), 20 C, 30 min; native PAGE in ice-cold 0.5x TBE, 170 V; salt and pH not stated

## UCGGCUCGUAUAAUGUGUGGAACGCUUUUACUGUUUUAAGGAGAUAUACC (ssRNA) [SBS-Down-RNA]
  binding result: binds

Reference: article PMC9437053
